pKd: −log10 of the molar value.
Key:
[1] = target: full-length human basigin (human); assay: MST; Alexa Fluor 488-labelled full-length basigin held at 0.1 µM; PfRH5 or PfRCR titrated 2 µM to 0.12 nM; 20 mM Tris pH 8.0, 200 mM NaCl, 1 mg/ml salmon sperm DNA, 0.02% DDM; 25 °C
[2] = target: basigin ectodomain (human); assay: MST; Alexa Fluor 488-labelled BSG^ecto held at 0.25 µM; PfRH5 or PfRCR titrated 8 µM to 3.91 nM; 20 mM Tris pH 8.0, 200 mM NaCl, 1 mg/ml salmon sperm DNA, 0.01% Tween-20; 25 °C

PfRH5 (natural protein) gave a pKd [1] of 6.92 and a pKd [2] of 6.72.
